# Measured values as given in patent publication US20200283528A1.
# Assays:
# [1] = biological target: human PDL1 expressed on cells (human) (UniProt Q9NZQ7); assay: cell-based or functional assay
# [2] = biological target: Fc tagged human PDL1 (human) (UniProt Q9NZQ7); assay: SPR Biacore T200; PDL1-Fc captured; molecule 0.12-90 nM
# [3] = biological target: human CD137-Fc chimeric protein (human) (UniProt Q07011); assay: SPR Biacore T200; CD137-Fc captured; molecule as analyte
# [4] = biological target: human PDL1 (recombinant, soluble) (human) (UniProt Q9NZQ7); assay: PDL1/PD-1 competition ELISA; PD-1 coated, biotinylated PDL1 1 ng/ml
# [5] = biological target: human PDL1 (recombinant, soluble) (human) (UniProt Q9NZQ7); assay: PDL1/B7-1 competition ELISA; B7-1 coated, biotinylated PDL1 40 ng/ml
NF-AT potency assay IC50 (with HSA) [1] [ng/mL],"NF-AT potency assay rel. IC50 (IC50, Avelumab/IC50, test molecule) (with HSA) [1]",Kd [2] [nM],koff [2] [s⁻¹],kon [2] [M⁻¹ s⁻¹],Kd [3] [nM],koff [3] [s⁻¹],kon [3] [M⁻¹ s⁻¹],IC50 [4] [ng/mL],"rel. IC50 (IC50, Avelumab/IC50, test molecule) [4]",IC50 [5] [ng/mL],"rel. IC50 (IC50, Avelumab/IC50, test molecule) [5]",Binder
9.83,3.73,0.014,4.5e-05,3.3e+06,1.7,0.00075,450000,2.75,0.51,3.31,0.84,"PRO1431 (scDb-scFv: 33-03-G02 sc18 / 38-02-A04 sc013 / 19-01-H04 sc03) (protein, from a related filing) DIQMTQSPSSLSASVGDRVTITCQASQSINDYLAWYQQKPGKAPKLLIYKASTLASGVPSRFSGSGSGTDFTLTISSLQPEDFATYYCQQGYIITDIDNVFGTGTKVTVLGGGGGSEVQLVESGGGLVQPGGSLRLSCAASGFSFSNSYWICWVRQAPGKCLEWIGCTFVGSSDSTYYANWAKGRFTISRDNSKNTVYLQMNSLRAEDTAVYYCARHPSDAVYGYANNLWGQGTLVTVSSGGGGSGGGGSGGGGSGGGGSIQMTQSPSSLSASVGDRVTITCQASQSINNVLAWYQQKPGKAPKLLIYRASTLASGVPSRFSGSGSGTDFTLTISSLQPEDFATYYCQSSYGNYGDFGCGTKVTVLGGGGGSQVQLQESGPGLVKPSETLSLTCKASGFSFSSGYDMCWVRQPPGKGLEWIACVVAGSVDITYYASWAKGRVTISKDSSKNQVSLKLSSVTAADTAVYYCARKDAYSDAFNLWGQGTLVTVSSGGGGSGGGGSIQMTQSPSSLSASVGDRVTITCQSSESVYSNNQLSWYQQKPGQPPKLLIYDASDLASGVPSRFSGSGSGTDFTLTISSLQPEDFATYYCAGGFSSSSDTAFGGGTKLTVLGGGGGSGGGGSGGGGSGGGGSEVQLVESGGGLVQPGGSLRLSCAASGFSLSSNAMGWVRQAPGKGLEYIGIISVGGFTYYASWAKGRFTISRDNSKNTVYLQMNSLRAEDTATYFCARDRHGGDSSGAFYLWGQGTLVTVSS"
35.2,1.11,0.0082,2.9e-05,3.6e+06,2,0.0006,310000,4.14,0.56,8.89,1.49,"PRO1473 (scDb-scFv: 33-03-G02 sc03 / 38-02-A04 sc013 / 19-01-H04 sc03) (protein, from a related filing) DFQLTQSPSSLSASVGDRVTITCQASQSINDYLAWYQQKPGKSPKLLIYKASTLASGVPSRFSGSGSGTDFTLTISSLQPEDFATYYCQQGYIITDIDNVFGTGTKVTVLGGGGGSEVQLVESGGGLVQPGGSLRLSCAASGFSFSNSYWICWVRQAPGKCLEWIGCTFVGSSDSTYYANWAKGRFTISRDNSKNTVYLQMNSLRAEDTAVYYCARHPSDAVYGYANNLWGQGTLVTVSSGGGGSGGGGSGGGGSGGGGSIQMTQSPSSLSASVGDRVTITCQASQSINNVLAWYQQKPGKAPKLLIYRASTLASGVPSRFSGSGSGTDFTLTISSLQPEDFATYYCQSSYGNYGDFGCGTKVTVLGGGGGSQSQLQESGPGLVKPSETLSLTCKASGFSFSSGYDMCWVRQPPGKGLEWIACVVAGSVDITYYASWAKGRVTISKDSSKNQVSLKLSSVTAADTAVYFCARKDAYSDAFNLWGQGTLVTVSSGGGGSGGGGSIQMTQSPSSLSASVGDRVTITCQSSESVYSNNQLSWYQQKPGQPPKLLIYDASDLASGVPSRFSGSGSGTDFTLTISSLQPEDFATYYCAGGFSSSSDTAFGGGTKLTVLGGGGGSGGGGSGGGGSGGGGSEVQLVESGGGLVQPGGSLRLSCAASGFSLSSNAMGWVRQAPGKGLEYIGIISVGGFTYYASWAKGRFTISRDNSKNTVYLQMNSLRAEDTATYFCARDRHGGDSSGAFYLWGQGTLVTVSS"

# Further lines, the binder ahead of its results:
Binder,NF-AT potency assay IC50 (with HSA) [1] [ng/mL],"NF-AT potency assay rel. IC50 (IC50, Avelumab/IC50, test molecule) (with HSA) [1]",Kd [2] [nM],koff [2] [s⁻¹],kon [2] [M⁻¹ s⁻¹],Kd [3] [nM],koff [3] [s⁻¹],kon [3] [M⁻¹ s⁻¹],IC50 [4] [ng/mL],"rel. IC50 (IC50, Avelumab/IC50, test molecule) [4]",IC50 [5] [ng/mL],"rel. IC50 (IC50, Avelumab/IC50, test molecule) [5]"
"PRO1430 (scDb-scFv: 37-20-B03 sc01 / 38-02-A04 sc013 / 19-01-H04 sc03) (protein, from a related filing) DIQMTQSPSSLSASVGDRVTITCQASQSIGTYLAWYQQKPGKAPKLLIYRAFILASGVPSRFSGSGSGTDFTLTISSLQPEDFATYYCQSNFYSDSTTIGPNAFGTGTKVTVLGGGGGSEVQLVESGGGLVQPGGSLRLSCAASGFSFSNSYWICWVRQAPGKCLEWIGCTFVGSSDSTYYANWAKGRFTISRDNSKNTVYLQMNSLRAEDTAVYYCARHPSDAVYGYANNLWGQGTLVTVSSGGGGSGGGGSGGGGSGGGGSIQMTQSPSSLSASVGDRVTITCQASQSINNVLAWYQQKPGKAPKLLIYRASTLASGVPSRFSGSGSGTDFTLTISSLQPEDFATYYCQSSYGNYGDFGCGTKVTVLGGGGGSQVQLQESGPGLVKPSETLSLTCKVSGFSFNSDYWIYWIRQPPGKGLEWIGSIYGGSSGNTQYASWAQGRVTISVDSSKNQFSLKLSSVTAADTAVYYCARGYVDYGGATDLWGQGTLVTVSSGGGGSGGGGSIQMTQSPSSLSASVGDRVTITCQSSESVYSNNQLSWYQQKPGQPPKLLIYDASDLASGVPSRFSGSGSGTDFTLTISSLQPEDFATYYCAGGFSSSSDTAFGGGTKLTVLGGGGGSGGGGSGGGGSGGGGSEVQLVESGGGLVQPGGSLRLSCAASGFSLSSNAMGWVRQAPGKGLEYIGIISVGGFTYYASWAKGRFTISRDNSKNTVYLQMNSLRAEDTATYFCARDRHGGDSSGAFYLWGQGTLVTVSS",16.2,1.45,0.0045,2.4e-05,5.3e+06,1.5,0.00071,460000,1.92,0.73,2.42,1.15
"PRO1479 (scDb-scFv: 37-20-B03 sc09.1 / 38-02-A04 sc013 / 19-01-H04 sc03) (protein, from a related filing) DIQMTQSPASLSASVGDRVTITCQASQSIGTYLAWYQQKPGKPPKLLIYRAFILASGVPSRFSGSGSGTDFTLTISSLQPEDFATYYCQSNFYSDSTTIGPNAFGTGTKVTVLGGGGGSEVQLVESGGGLVQPGGSLRLSCAASGFSFSNSYWICWVRQAPGKCLEWIGCTFVGSSDSTYYANWAKGRFTISRDNSKNTVYLQMNSLRAEDTAVYYCARHPSDAVYGYANNLWGQGTLVTVSSGGGGSGGGGSGGGGSGGGGSIQMTQSPSSLSASVGDRVTITCQASQSINNVLAWYQQKPGKAPKLLIYRASTLASGVPSRFSGSGSGTDFTLTISSLQPEDFATYYCQSSYGNYGDFGCGTKVTVLGGGGGSEVQLVESGGGLVQPGGSLRLSCAASGFSFNSDYWIYWVRQAPGKGLEWIASIYGGSSGNTQYASWAQGRFTISRDNSKNTVYLQMNSLRAEDTAVYFCARGYVDYGGATDLWGQGTLVTVSSGGGGSGGGGSIQMTQSPSSLSASVGDRVTITCQSSESVYSNNQLSWYQQKPGQPPKLLIYDASDLASGVPSRFSGSGSGTDFTLTISSLQPEDFATYYCAGGFSSSSDTAFGGGTKLTVLGGGGGSGGGGSGGGGSGGGGSEVQLVESGGGLVQPGGSLRLSCAASGFSLSSNAMGWVRQAPGKGLEYIGIISVGGFTYYASWAKGRFTISRDNSKNTVYLQMNSLRAEDTATYFCARDRHGGDSSGAFYLWGQGTLVTVSS",50.4,1.04,0.0092,3.9e-05,4.2e+06,1.7,0.00054,330000,2.65,0.86,10.7,1.38
"PRO1482 (scDb-scFv: 37-20-B03 sc09.1 / 38-02-A04 sc013 / 19-01-H04 sc03) (protein, from a related filing) DIQMTQSPSSLSASVGDRVTITCQASQSINNVLAWYQQKPGKAPKLLIYRASTLASGVPSRFSGSGSGTDFTLTISSLQPEDFATYYCQSSYGNYGDFGCGTKVTVLGGGGGSEVQLVESGGGLVQPGGSLRLSCAASGFSFNSDYWIYWVRQAPGKGLEWIASIYGGSSGNTQYASWAQGRFTISRDNSKNTVYLQMNSLRAEDTAVYFCARGYVDYGGATDLWGQGTLVTVSSGGGGSGGGGSGGGGSGGGGSIQMTQSPASLSASVGDRVTITCQASQSIGTYLAWYQQKPGKPPKLLIYRAFILASGVPSRFSGSGSGTDFTLTISSLQPEDFATYYCQSNFYSDSTTIGPNAFGTGTKVTVLGGGGGSEVQLVESGGGLVQPGGSLRLSCAASGFSFSNSYWICWVRQAPGKCLEWIGCTFVGSSDSTYYANWAKGRFTISRDNSKNTVYLQMNSLRAEDTAVYYCARHPSDAVYGYANNLWGQGTLVTVSSGGGGSGGGGSIQMTQSPSSLSASVGDRVTITCQSSESVYSNNQLSWYQQKPGQPPKLLIYDASDLASGVPSRFSGSGSGTDFTLTISSLQPEDFATYYCAGGFSSSSDTAFGGGTKLTVLGGGGGSGGGGSGGGGSGGGGSEVQLVESGGGLVQPGGSLRLSCAASGFSLSSNAMGWVRQAPGKGLEYIGIISVGGFTYYASWAKGRFTISRDNSKNTVYLQMNSLRAEDTATYFCARDRHGGDSSGAFYLWGQGTLVTVSS",54.8,0.68,0.0098,3.3e-05,3.4e+06,1.1,0.00036,320000,1.78,1.24,8.18,1.51
"PRO1476 (scDb-scFv: 33-03-G02 sc03 / 38-02-A04 sc013 / 19-01-H04 sc03) (protein, from a related filing) DIQMTQSPSSLSASVGDRVTITCQASQSINNVLAWYQQKPGKAPKLLIYRASTLASGVPSRFSGSGSGTDFTLTISSLQPEDFATYYCQSSYGNYGDFGCGTKVTVLGGGGGSQSQLQESGPGLVKPSETLSLTCKASGFSFSSGYDMCWVRQPPGKGLEWIACVVAGSVDITYYASWAKGRVTISKDSSKNQVSLKLSSVTAADTAVYFCARKDAYSDAFNLWGQGTLVTVSSGGGGSGGGGSGGGGSGGGGSFQLTQSPSSLSASVGDRVTITCQASQSINDYLAWYQQKPGKSPKLLIYKASTLASGVPSRFSGSGSGTDFTLTISSLQPEDFATYYCQQGYIITDIDNVFGTGTKVTVLGGGGGSEVQLVESGGGLVQPGGSLRLSCAASGFSFSNSYWICWVRQAPGKCLEWIGCTFVGSSDSTYYANWAKGRFTISRDNSKNTVYLQMNSLRAEDTAVYYCARHPSDAVYGYANNLWGQGTLVTVSSGGGGSGGGGSIQMTQSPSSLSASVGDRVTITCQSSESVYSNNQLSWYQQKPGQPPKLLIYDASDLASGVPSRFSGSGSGTDFTLTISSLQPEDFATYYCAGGFSSSSDTAFGGGTKLTVLGGGGGSGGGGSGGGGSGGGGSEVQLVESGGGLVQPGGSLRLSCAASGFSLSSNAMGWVRQAPGKGLEYIGIISVGGFTYYASWAKGRFTISRDNSKNTVYLQMNSLRAEDTATYFCARDRHGGDSSGAFYLWGQGTLVTVSS",53.5,0.66,0.009,3.1e-05,3.4e+06,1.1,0.00037,350000,2.84,0.8,9.49,1.1
